What all share (assay): SPR, KD relative to WT C2;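 further: biacore SPR at 37 °C, anti-C2 mAbs captured via immobilised goat anti-human IgG, C2 alanine or serine surface mutants as analytes, 1:1 model fitted, double-referenced sensograms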
For orientation: In SPR one partner is held on a chip, and binding of the other changes the refractive index at the surface.

Assay [1] addresses T1, human C2 R493A (human, UniProt P06681 21-752).
T1 sequence: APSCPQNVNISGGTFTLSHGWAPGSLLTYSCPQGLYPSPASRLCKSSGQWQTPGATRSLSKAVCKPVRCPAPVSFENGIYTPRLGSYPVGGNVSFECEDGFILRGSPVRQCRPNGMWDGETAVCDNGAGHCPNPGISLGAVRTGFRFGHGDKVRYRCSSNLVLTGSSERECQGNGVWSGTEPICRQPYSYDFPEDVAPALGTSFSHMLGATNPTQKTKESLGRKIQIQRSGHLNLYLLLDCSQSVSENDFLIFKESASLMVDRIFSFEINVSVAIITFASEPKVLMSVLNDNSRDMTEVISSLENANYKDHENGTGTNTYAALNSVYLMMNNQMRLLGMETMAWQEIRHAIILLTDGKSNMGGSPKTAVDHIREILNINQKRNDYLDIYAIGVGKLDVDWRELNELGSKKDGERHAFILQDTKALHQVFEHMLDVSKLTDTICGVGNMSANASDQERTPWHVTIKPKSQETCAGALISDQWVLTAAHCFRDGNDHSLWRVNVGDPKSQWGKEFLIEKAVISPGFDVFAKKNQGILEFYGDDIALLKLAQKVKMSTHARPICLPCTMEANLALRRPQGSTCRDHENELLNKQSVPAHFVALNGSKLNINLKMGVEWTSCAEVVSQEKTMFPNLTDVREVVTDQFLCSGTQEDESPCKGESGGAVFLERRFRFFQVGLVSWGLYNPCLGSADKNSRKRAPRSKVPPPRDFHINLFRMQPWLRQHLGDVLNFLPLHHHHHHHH

For assay [2], the target named is T2, human C2 S708A (human, UniProt P06681 21-752).
T2 sequence: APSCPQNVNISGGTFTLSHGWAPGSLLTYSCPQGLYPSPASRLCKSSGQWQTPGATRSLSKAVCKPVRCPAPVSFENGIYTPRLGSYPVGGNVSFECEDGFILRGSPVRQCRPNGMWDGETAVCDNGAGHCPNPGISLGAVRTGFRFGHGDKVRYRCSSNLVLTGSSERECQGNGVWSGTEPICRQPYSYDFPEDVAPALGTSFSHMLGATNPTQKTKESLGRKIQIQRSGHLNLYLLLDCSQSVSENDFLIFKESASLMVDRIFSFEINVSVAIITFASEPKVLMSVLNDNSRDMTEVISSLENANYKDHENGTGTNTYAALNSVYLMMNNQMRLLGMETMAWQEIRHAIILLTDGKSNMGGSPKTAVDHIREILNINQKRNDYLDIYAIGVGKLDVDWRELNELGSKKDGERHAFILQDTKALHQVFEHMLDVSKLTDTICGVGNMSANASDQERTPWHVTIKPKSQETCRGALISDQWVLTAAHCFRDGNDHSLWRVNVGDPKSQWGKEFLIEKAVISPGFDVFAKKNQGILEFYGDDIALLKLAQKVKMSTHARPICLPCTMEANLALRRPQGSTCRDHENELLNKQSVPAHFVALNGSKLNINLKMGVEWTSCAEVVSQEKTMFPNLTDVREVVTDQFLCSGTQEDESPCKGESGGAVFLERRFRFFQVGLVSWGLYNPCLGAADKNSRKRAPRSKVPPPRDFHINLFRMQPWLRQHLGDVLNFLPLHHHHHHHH

The target in assay [3] is T3, human complement C2 (wild type) (human, UniProt P06681 21-752).
T3 construct: Full-length human C2 (NP_000054) with C-terminal 8x His tag, secreted from Expi293F cells and purified from the supernatant; also called WT; huC2
T3 sequence: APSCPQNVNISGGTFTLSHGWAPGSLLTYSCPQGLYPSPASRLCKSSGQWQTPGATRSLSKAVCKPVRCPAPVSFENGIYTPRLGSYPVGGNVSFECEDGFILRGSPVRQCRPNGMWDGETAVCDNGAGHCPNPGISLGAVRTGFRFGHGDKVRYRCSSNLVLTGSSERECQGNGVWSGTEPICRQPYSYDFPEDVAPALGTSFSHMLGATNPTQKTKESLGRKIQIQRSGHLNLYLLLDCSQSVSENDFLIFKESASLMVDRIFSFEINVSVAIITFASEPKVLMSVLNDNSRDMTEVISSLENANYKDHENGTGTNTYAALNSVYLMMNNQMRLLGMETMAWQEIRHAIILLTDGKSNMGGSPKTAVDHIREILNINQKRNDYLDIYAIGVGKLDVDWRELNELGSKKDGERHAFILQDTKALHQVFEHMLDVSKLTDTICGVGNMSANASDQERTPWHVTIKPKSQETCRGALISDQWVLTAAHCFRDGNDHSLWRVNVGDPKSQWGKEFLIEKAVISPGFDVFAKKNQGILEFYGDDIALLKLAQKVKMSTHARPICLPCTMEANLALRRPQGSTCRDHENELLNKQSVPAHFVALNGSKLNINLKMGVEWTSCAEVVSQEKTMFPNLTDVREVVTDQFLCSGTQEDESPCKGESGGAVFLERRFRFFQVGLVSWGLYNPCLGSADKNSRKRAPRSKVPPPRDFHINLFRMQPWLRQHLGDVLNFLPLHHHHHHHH

B1: RF16-226 (antibody, human IgG4 S228P, lambda)
heavy: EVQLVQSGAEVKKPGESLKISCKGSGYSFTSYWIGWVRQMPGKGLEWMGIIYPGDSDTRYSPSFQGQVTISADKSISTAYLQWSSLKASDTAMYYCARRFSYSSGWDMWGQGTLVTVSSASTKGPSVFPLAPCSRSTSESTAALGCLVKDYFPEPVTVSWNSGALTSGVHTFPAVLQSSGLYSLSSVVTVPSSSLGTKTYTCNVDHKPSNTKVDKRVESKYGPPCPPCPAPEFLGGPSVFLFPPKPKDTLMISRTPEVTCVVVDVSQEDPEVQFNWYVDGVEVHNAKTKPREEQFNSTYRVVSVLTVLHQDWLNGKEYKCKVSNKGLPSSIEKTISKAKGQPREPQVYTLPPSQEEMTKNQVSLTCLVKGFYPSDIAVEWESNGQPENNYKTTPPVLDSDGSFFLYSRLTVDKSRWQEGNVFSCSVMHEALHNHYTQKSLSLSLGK
light: SYELTQPPSVSVSPGQTARITCSGDALTSKYVAWYQQKSGLAPLLVIYEDTRRPSGIPAKFSGSSSGSVATLTISGAHGDDEADYYCYSTDASGHQRVFGGGTKLTVLSQPKAAPSVTLFPPSSEELQANKATLVCLISDFYPGAVTVAWKADGSPVKAGVETTKPSKQSNNKYAASSYLSLTPEQWKSHRSYSCQVTHEGSTVEKTVAPTECS
notes: pH-dependent anti-C2 antibody from a phage display library; also called WT
For the molecule B1, the Fold diff is 2 fold in assay [1], 2 fold in assay [2] and 1 fold in assay [3].

These data come from patent US20220332804A1 (CSL INNOVATION, published 2022).
